{
  "source": "the DeepSol protein solubility set",
  "data": [
    {"experiment": "soluble on expression in E. coli; label from the status in PepcDB or PDB records", "values": [
      {"sequence": "MGSDKIHHHHHHMYLKISHTTEYHYDEPVQYALQRLRLTPVNLPGQTVRNWKTLVDGAAIEVSYDDQFGNRTHLVSLDADRTTLCIEANGEVETEDRAGVFGAHQSYVPLWLYARETPLTKPGKRIRELAKAAGGATELERMHALMAIIHETVRYEQGETQVGTSAEEALERGKGVCQDHAHILISAARTLGLPARYVSGYLMMEDHPQQTASHAWADVHIAGLGWVGFDPANKVCPDDRYVRIASGLCYRDAAPVSGLVHGTGTETLKVAVTVEQQGQSQAQN", "soluble on expression in E. coli": "not soluble"},
      {"sequence": "MRLHARSPRVESGRYGWLLDSVVDERRRHRMSFLRLGRNGMSEFERPTDHSLGRCGQVLCVTRGVSSRAPRRSAETGVSVATPATVAAHISVWQYEAMSAYAALAEPHRRQILDLLREGERPAGELVERIALSQPGVSKHLKVLREAGLVVVRADGKQRLYALRPEPLAEVDRWLEPYRAYWSRRLDALERHLEENP", "soluble on expression in E. coli": "not soluble"},
      {"sequence": "MYIGIDLGTSGVKVILLNEQGEVVAAQTEKLTVSRPHPLWSEQDPEQWWQATDRAMKALGDQHSLQDVKALGIAGQMHGATLLDAQQRVLRPAILWNDGRCAQECTLLEARVPQSRVITGNLMMPGFTAPKLLWVQRHEPEIFRQIDKVLLPKDYLRLRMTGEFASDMSDAAGTMWLDVAKRDWSDVMLQACDLSRDQMPALYEGSEITGALLPEVAKAWGMATVPVVAGGGDNAAGAVGVGMVDANQAMLSLGTSGVYFAVSEGFLSKPESAVHSFCHALPQRWHLMSVMLSAASCLDWAAKLTGLSNVPALIAAAQQADESAEPVWFLPYLSGERTPHNNPQAKGVFFGLTHQHGPNELARAVLEGVGYALADGMDVVHACGIKPQSVTLIGGGARSEYWRQMLADISGQQLDYRTGGDVGPALGAARLAQIAANPEKSLIELLPQLPLEQSHLPDAQRYAAYQPRRETFRRLYQQLLPLMA", "soluble on expression in E. coli": "soluble"},
      {"sequence": "MAHHHHHHMGACGSKGSTSDKGLASDKDGKNAKDRKEAWERIRQAIPREKTAEAKQRRIELFKKFDKNETGKLCYDEVHSGCLEVLKLDEFTPRVRDITKRAFDKARVLGSKLENKGSEDFVEFLEFRLMLCYIYDFFELTVMFDEIDASGNMLVDEEELKRAVPKLEAWGAKVEDPAALFKEIDKNGTGSVTFDEFAAWASAVKLDADGDPDNVPERA", "soluble on expression in E. coli": "soluble"},
      {"sequence": "IDENSFWIEGYFKETDLAGIAPNDRATVTLLMHDDVALEGKIKSIGFGIAKKDGTTGNDLLPTVNPNFQWIRLAQRIPVKVTLNEMPKDLQLRVGMTASIKIIKH", "soluble on expression in E. coli": "not soluble"},
      {"sequence": "MNIDLNADLGEGCASDSELLTLVSSANIACGFHAGDAQTMLTCVREALKNGVAIGAHPSFPDRDNFGRTAMVLPPETVYAQTLYQIGALGAIVQAQGGVMRHVKPHGMLYNQAAKDPHLAQAIAKAVHDYDPSLILVGLAGSELIRAGERHRLVTRQEVFADRGYQADGSLVPRMQPGALIHDEEQALAQTLDMVQAGRVKSVTGVWTTVTAQTVCIHGDGEYALAFARRLRAAFNARNIHVIALEHHHHHH", "soluble on expression in E. coli": "soluble"},
      {"sequence": "MGSDKIHHHHHHMIPRNEYLENLISFRDKQLIKVVTGIRRCGKSTLFELYQDYLLQNDVKPEQIIAFNLEDGDWAEIENSKDLYELVKARLLPDRMNYVFLDEVQRVTDFQKAVDSLFIKKNCDVYITGSNAYLLSGELATLLSGRYVEIKMLPLSFKEYVSAFPPDSSIDRLYQDYIHNSSFPYTLELKRQKDIRQYLDGLYDSIVLKDIVARRRFPDLAMLQSVVRFLFDNIGNLCSTKKIADTMTSAGRKITVHTVESYLTALTDSFIFYRVGRYDVKGKQYLKTGDKYYAADMGLRYNALGTKKADAGHILENIVYLELLRRGYEVHIGKVGAAEIDFIAIGPEGEEYYQVAYTVMDADGKTLQRELAPLDAISDHNPKFLLTMDHGPLVSHNGIKQLNALDWLLK", "soluble on expression in E. coli": "not soluble"},
      {"sequence": "PVNQKSKRSELSQRRIRRPFSVAEVEALVEAVEHLGTGRWRDVKMRAFDNADHRTYVDLKDKWKTLVHTASIAPQQRRGEPVPQDLLDRVLAAHAYWSQQQGKQHVEPLKILDAKAQKVGA", "soluble on expression in E. coli": "soluble"},
      {"sequence": "MNFKESRAIYLQIADRICDDILLGQYEEEGRIPSVREYASIVEVNANTVMRSYEYLQSQEVIYNKRGIGFFVASGAKMLIHSLRKEQFLKEEVGSFFRQLYTLGISIKEIEKMYYEFIQRQNQ", "soluble on expression in E. coli": "soluble"},
      {"sequence": "MGSDKIHHHHHHMDIIDYLPQKMKAEAEAYMPCGLEEIRVRAGKQVQYMFAGGCRAGVYISHSDIEEMINYLSGYSFHAIAPQLAAGYFTVEGGHRVGIAGQMGCDGGKVTAVSEIASLNIRIAHQIRDVAMPLMPYIRDENSIYNTLVISRPGEGKTTFLRDCIRILSDGCDGKNALKVSVVDERSEIAACYLGVAQNDIGNSSDVLDNCPKSLGMRMLLRSMSPDVIAVDELGGEGDIEALNQLVSCGIRILGSVHGTNADDLRRKILPHAIERFVFIDHDEKGVRRYSIYDEAYRLLYSTVCGIGADKRLQQKKKGRYSDAV", "soluble on expression in E. coli": "not soluble"},
      {"sequence": "MTAGFNFNNYAAGFCSATPALRGNEVNMDTLNLGNNESLVCGVFPNQDGTFTAMTYTKSKTFKTEAGARRWLARNTD", "soluble on expression in E. coli": "soluble"},
      {"sequence": "MSVKHHDVIIIGAGAAGLMCAATAGYRGRDVLVLDNAKQAGRKILISGGGRCNFTNLKVEPANFICGNPHFVKSALARYPSQQFIELVERHGIEYHERDHGQLFCNDSAKEIVTMLLTECEWAGVSIKLRTDILSVGKNEAGRFELNTSNGELSCDSLVIATGGLSMPKLGATPYGYQLAEQFGLKVLPTHAGLVPFTWHSEDKIRFEPLSGIAVPSRITAKDGTAFSEALLFTHRGLSGPAILQISNYWKAGETIKINLLPNMDAAQAIEQQLAAHPKQSLRNTLSLWLPKRLVEVLFDEVLLNKALNQLVHAERAKLVDDLHRWTVLMNGTEGYRTAEVTLGGVDTHELSSKTMEAIKVPGLFFIGEVMDVSGWLGGFNFQWAWASGVAAGKAV", "soluble on expression in E. coli": "not soluble"},
      {"sequence": "MQIDVNVEVKEKPTGAVMFGAGYSNMEGLILSGSVAQDNIFGTGKFVNLMVNTGSVNKTYSLSYTDPYFTKDGVTAGLDLYKRVLNTRTLSSVMNFNTDTLGAGLRFGIPINENDSIMGGLGAEQTTIDLGPDSPQRNIDFVNKFGRTTINIPATLSWRRDGRDSAIWTTSGTTQRVFAEVGLPGGDLTYYKLSYDLRWYFPITEIFTLMLNGELGYGDGYSGKELPFFKNFFAGGNTSVRGYNISSLGPRDATNRTLGGNKRAVGNIEVLFPMPGMRNDRTVRLSAFLDGGTVWGPGGVRPDQEGLRYSAGIAVTWISPMGPLKISVAQPLNSQPGDNIQRFQFQFGQQFLEHHHHHH", "soluble on expression in E. coli": "not soluble"},
      {"sequence": "EESPFVGNPGNITGARGLTGTLRCQLQVQGEPPEVHWLRDGQILELADSTQTQVPLGEDEQDDWIVVSQLRITSLQLSDTGQYQCLVFLGHQTFVSQPGYVGLEGLPYFLEEPEDRTVAANTPFNLSCQAQGPPEPVDLLWLQDAVPLATAPGHGPQRSLHVPGLNKTSSFSCEAHNAKGVTTSRTATITVLPQQ", "soluble on expression in E. coli": "soluble"},
      {"sequence": "MNVVFAVKQYISKMIEDSGPGMKVLLMDKETTGIVSMVYTQSEILQKEVYLFERIDSQNREIMKHLKAICFLRPTKENVDYIIQELRRPKYTIYFIYFSNVISKSDVKSLAEADEQEVVAEVQEFYGDYIAVNPHLFSLNILGCCQGRNWDPAQLSRTTQGLTALLLSLKKCPMIRYQLSSEAAKRLAECVKQVITKEYELFEFRRTEVPPLLLILDRCDDAITPLLNQWTYQAMVHELLGINNNRIDLSRVPGISKDLREVVLSAENDEFYANNMYLNFAEIGSNIKNLMEDFQKKKPKEQQKLESIADMKAFVENYPQFKKMSGTVSKHVTVVGELSRLVSERNLLEVSEVEQELACQNDHSSALQNIKRLLQNPKVTEFDAARLVMLYALHYERHSSNSLPGLMMDLRNKGVSEKYRKLVSAVVEYGGKRVRGSDLFSPKDAVAITKQFLKGLKGVENVYTQHQPFLHETLDHLIKGRLKENLYPYLGPSTLRDRPQDIIVFVIGGATYEEALTVYNLNRTTPGVRIVLGGTTVHNTKSFLEEVLASGLHSRSKESSQVTSRSASRR", "soluble on expression in E. coli": "not soluble"},
      {"sequence": "MEKVLDLDVQVKANNNSNDSAGDERITSHSLCTPGCAKTGSFNSFCC", "soluble on expression in E. coli": "not soluble"},
      {"sequence": "MGHHHHHHSHMLEILYQDEWLVAVNKPSGWLVHRSWLDRDEKVVVMQTVRDQIGQHVFTAHRLDRPTSGVLLMGLSSEAGRLLAQQFEQHQIQKRYHAIVRGWLMEEAVLDYPLVEELDKIADKFAREDKGPQPAVTHYRGLATVEMPVATGRYPTTRYGLVELEPKTGRKHQLRRHLAHLRHPIIGDSKHGDLRQNRSGAEHFGLQRLMLHASQLSLTHPFTGEPLTIHAGLDDTWMQALSQFGWRGLLPENERVEFSAPSGQDGEISS", "soluble on expression in E. coli": "soluble"},
      {"sequence": "MSGSGMTPMLQATPEQARTLGAEEPIRPGQDRLAHAPADHPELPQPKIGILLANLGTPDNYDYWSMRRYLNEFLSDKRVIDYPAWKWQPLLQILILSKRPFSSGANYKLIWNHDKGESPLMTITKDQTAAIAAEIRSLYGNRVMVDFCMRYGNPSTESRVRAMVEAGCEKILFFPLYPHYAGATSATANDEFFRAMMKEKRQPAVRTVPEYYDNPLYIDALAQSVERAYAQLDHRPDVLVASYHGMPKRYLMAGDPYHCQCAKTSRLLRERLGWEKGAIDTTFQSVFGPEEWLKPYTVEHVAELARAGKKRIAVIAPAFSADCIETLEEINGEIREAFEEAGGEEFTYIPCLNDDEAHIRALVSVIEDNLAGWLARG", "soluble on expression in E. coli": "not soluble"},
      {"sequence": "MAKYQELVEQLKRQIKSGIWHPGDKLPSLRRQSEHSGLSLMTVLHAYQILESQGWVTSQPRSGYRVAPNIKSSNEPQAPAAVSWTEQVDINEFIFDVLQASKNPSMINFGFAYPDPSLYPRYHVNRAMSAAARNMPISTTFDNLPPGNEQLRTIIAKRYAAKGIEISPDEIVITAGALEALTLSLQACTRPGDWVVVESPAFYGALQSLERLGLKALSVRTDPVTGIDLDSLERALQTHDVKACWLMSNFQNPLGFTLSNEKKQKLIELTQRYNVPVIEDDVYSELHAENDSVYPLRMFDDTGNTMLCSSFSKSLIAGLRIGWVAAGKRALEVQKLQLMSTLATSAPVQMTLVHYLTSRNYESHLKQLRKKLFERKSKMTNLLNELLPEEVKVLSQSGGYFIWLELPKHIDALQIYREALKDNISIAPGKMFSLTEQYDHCIRLNASFELNDKYVHALNLLANIIRDHLAK", "soluble on expression in E. coli": "not soluble"},
      {"sequence": "MICDNCKTREAVILQPHTGRKLCKECFIEDIRKRVEMEARKQEIVNSNKILLAVSGGKDSLVLADTLSQFIHPSRLIAFNINEGIKGYNRNEYVKKLEEYLKDLGIELIKSGFKEEVGFSLDEMLEASLKKKLNVSACTFCGGFRRKLINEAGIKVAADYVATGHNLDDEVQTIVINLIRGDLLRLIRFGDKPLMVSSKFVMRVKPLRKIYEWETTMYAHLKGFEFQETECPYISQKPTLRAKVRDLLYKLEEKKPGTLLRILEQFDEISEKIKKEYRLTNELPNCVICGEPTTPGRMICKNCELLIRSGLMPQEYQKYLPIS", "soluble on expression in E. coli": "not soluble"},
      {"sequence": "MVRVDQNLFNEVMYLLDELSQDITVPKNVRKVAQDSKAKLSQENESLDLRCATVLSMLDEMANDPNVPAHGRTDLYTIISKLEALSKS", "soluble on expression in E. coli": "not soluble"},
      {"sequence": "GPGSMDGFRLYMEGISLPEGSMRRANAELIGAINSPDPMVQHSGLQMLCDQLTMSSFISPSTMTTIPLVLPSLLRCIASSQVREVFITAARALTYIIDAFPRTFETFPTRDTLIEVLLQHLRSIQDVELSEQCITCLEMITRSQTGSRELLHNNGVEAVLGFADFFTLHKQRQIWTIVQRLVGEVDESSVQHITACLPTLRIGMTNGDSEIRQKAIATLAQAIEGVKTDRAIVETVFGDAADRIAVLLHERDVNDDTLSSALSLLYAGVQWSAGIAASVIQSDLLNTLLSLLQSTPVPAVVAEQHTAPSAGAGRVARRSAAAELVVGRDSTTDSGGGAGTEPAAARTTMLTSHQRTIVCRLLASLLIPCRTGAAEQLERLEMLTQRPLLTGARAHGKPVGHGRRR", "soluble on expression in E. coli": "not soluble"}
    ]}
  ]
}
